Experiment [1] concerns the target BSA (bovine) (UniProt P02769). In words: ELISA, BSA coated as negative control, binder 1 µg/mL, chemiluminescence.
For experiment [2], the target named is BSA (bovine) (UniProt P02769). The description is as above. This is another data set of the same source.

Read-outs that look alike come from different tables or passages of the source.

Chain of BSA (bovine) (P02769 25-607 limits assumed): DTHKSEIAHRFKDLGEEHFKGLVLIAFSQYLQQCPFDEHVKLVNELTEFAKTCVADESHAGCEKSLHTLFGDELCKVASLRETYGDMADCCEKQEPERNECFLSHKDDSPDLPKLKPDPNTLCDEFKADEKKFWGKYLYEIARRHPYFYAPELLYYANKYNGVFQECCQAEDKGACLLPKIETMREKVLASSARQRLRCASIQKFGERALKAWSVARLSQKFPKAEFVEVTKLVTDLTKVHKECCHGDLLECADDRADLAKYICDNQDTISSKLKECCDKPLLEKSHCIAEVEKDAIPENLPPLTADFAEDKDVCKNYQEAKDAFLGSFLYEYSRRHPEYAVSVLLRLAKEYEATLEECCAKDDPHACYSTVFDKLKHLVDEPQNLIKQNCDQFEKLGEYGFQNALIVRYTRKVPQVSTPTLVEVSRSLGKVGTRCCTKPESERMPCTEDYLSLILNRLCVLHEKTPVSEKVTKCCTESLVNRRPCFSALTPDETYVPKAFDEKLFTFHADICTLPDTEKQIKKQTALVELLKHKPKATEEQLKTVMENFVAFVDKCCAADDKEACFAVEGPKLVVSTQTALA
Chain of BD23 (antibody) (VH): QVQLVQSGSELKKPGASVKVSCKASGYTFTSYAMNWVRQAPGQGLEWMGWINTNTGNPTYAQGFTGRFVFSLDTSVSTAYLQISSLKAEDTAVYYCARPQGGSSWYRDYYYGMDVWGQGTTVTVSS
Chain of BD23 (antibody) (VL): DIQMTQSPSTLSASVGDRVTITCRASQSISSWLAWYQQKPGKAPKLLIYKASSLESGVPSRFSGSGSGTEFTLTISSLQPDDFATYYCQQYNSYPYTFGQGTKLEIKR
Chain of CR3022 (antibody) (VH): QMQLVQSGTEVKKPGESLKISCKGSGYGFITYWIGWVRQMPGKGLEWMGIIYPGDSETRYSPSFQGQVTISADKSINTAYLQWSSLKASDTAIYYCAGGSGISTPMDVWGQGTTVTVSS
Chain of CR3022 (antibody) (VL): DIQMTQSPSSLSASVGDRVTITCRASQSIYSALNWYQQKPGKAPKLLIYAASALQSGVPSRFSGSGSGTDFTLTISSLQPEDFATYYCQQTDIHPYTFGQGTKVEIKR

BD23 (antibody): the signal intensity in the experiment with BSA (bovine) [1] was found to be 13; in the experiment with BSA (bovine) [2] it was 83.

As for CR3022 (antibody), the values for the signal intensity in the experiment with BSA (bovine) [1] and with BSA (bovine) [2] were 63 and 53, respectively.

CV30 (antibody): the signal intensity with BSA (bovine) [1] was 73; with BSA (bovine) [2], 33.

As to REGN10933 (antibody), the signal intensity with BSA (bovine) [1] amounted to 53; with BSA (bovine) [2], 63.

In the case of REGN10987 (antibody), the signal intensity with BSA (bovine) [1] amounted to 43; in the experiment with BSA (bovine) [2], 63.

The record behind these values is patent publication US20240255507A1.
